The values that follow come from US20250145690A1 (US Dept. of Health and Human Services, published 2025).

In test [1] the target is T1, HCoV-OC43 spike protein (HCoV-OC43, UniProt P36334 14-1297).
T1 sequence: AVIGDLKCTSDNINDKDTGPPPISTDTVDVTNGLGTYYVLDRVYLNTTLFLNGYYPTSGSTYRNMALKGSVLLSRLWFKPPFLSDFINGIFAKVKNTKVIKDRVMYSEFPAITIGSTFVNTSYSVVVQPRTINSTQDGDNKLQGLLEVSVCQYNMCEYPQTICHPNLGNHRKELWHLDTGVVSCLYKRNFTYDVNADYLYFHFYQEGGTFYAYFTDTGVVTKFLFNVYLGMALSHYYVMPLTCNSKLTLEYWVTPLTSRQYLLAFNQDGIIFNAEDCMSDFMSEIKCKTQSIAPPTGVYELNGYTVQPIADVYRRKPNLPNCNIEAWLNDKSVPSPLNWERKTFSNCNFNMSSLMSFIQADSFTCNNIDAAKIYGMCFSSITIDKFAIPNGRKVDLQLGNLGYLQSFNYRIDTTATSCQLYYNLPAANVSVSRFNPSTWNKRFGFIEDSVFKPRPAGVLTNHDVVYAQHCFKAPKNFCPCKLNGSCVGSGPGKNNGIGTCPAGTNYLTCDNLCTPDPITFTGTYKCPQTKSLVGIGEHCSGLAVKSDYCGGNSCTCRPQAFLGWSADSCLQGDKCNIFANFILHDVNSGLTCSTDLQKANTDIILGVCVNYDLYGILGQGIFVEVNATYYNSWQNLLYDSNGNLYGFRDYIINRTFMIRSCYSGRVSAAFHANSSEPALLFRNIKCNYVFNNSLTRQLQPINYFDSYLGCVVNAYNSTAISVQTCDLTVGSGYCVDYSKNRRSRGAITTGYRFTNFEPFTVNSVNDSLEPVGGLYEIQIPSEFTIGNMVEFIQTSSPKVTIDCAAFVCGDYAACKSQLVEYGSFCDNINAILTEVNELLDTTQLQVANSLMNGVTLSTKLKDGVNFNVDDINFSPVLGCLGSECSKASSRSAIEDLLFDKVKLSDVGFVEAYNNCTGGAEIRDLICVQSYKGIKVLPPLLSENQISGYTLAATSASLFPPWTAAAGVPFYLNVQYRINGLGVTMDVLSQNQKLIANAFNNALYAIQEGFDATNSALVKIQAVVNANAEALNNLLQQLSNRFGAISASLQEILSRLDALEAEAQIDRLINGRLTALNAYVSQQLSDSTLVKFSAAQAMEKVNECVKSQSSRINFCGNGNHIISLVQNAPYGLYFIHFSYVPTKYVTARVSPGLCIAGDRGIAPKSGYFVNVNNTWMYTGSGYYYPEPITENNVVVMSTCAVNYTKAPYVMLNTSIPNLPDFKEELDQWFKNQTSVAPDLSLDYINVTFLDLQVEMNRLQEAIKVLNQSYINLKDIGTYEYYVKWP
The experiment in a line: bead flow cytometry, AUC minus CD4.

The target in test [2] is T2, SARS-CoV-2 spike S2 subunit, recombinant (SARS-CoV-2, UniProt P0DTC2 686-1213).
T2 construct: domain: S2 subunit
The experiment in a line: bead flow cytometry, AUC minus CD4.

B1: COV23-01 (antibody, V domains shown)
VH: QVTLKESGPVLVKPTETLTLTCTVSGFSLSNTKMGVSWIRQPPGKALEWLAHIFSNDRKSYTTSLKSRLTISEDTSKSQIVLTMTNMDPVDTATYYCARIGAGGTYNFYYYMDVWGKGTTVTVSS
VL: EIVLTQSPATLSLSPGERATLSCRASQSVSSYLAWYQQKPGQAPRLLIYDASNRATGIPARFSGSGSGTDFTLTISSLEPEDFAVYYCQQRSLYYTFGQGTKLEIK
As for B1, in test [1], the binding result is reported as “no binding (tested: 200 µg/mL)”.

B2: COV49-54 (antibody, V domains shown)
VH: EVQLVESGGGLVQPGGSLRLSCAASGFIVSSNYMSWVRQAPGKGLEWVSMIYSGGSTVYADSVKGRFTISRDISKNTLYLQMNSLRAEDTAVYYCALETFDYWGQGTLVTVSS
VL: DIQMTQSPSSLSASVGDRVTITCRASQGITNHLAWYQQKPGKVPKLLIYAASTLQSGVPSRFSGSGYGTDFTLTISSLQPEDVASYYCQKYDSAPRTFGQGTKVEIK
Take B2: the binding result in test [2] is “no binding (tested: 200 µg/mL)”.
